Results on 2 variants are retold here after IntAct's records for PubMed 24863370.

B1: Calvin cycle protein CP12, chloroplastic (Chlamydomonas reinhardtii), A6Q0K5 (parent)
chain: MMLTKSVVISRPAVRPVSTRRAVVVRASGQPAVDLNKKVQDAVKEAEDACAKGTSADCAVAWDTVEELSAAVSHKKDAVKADVTLTDPLEAFCKDAPDADECRVYED
partner: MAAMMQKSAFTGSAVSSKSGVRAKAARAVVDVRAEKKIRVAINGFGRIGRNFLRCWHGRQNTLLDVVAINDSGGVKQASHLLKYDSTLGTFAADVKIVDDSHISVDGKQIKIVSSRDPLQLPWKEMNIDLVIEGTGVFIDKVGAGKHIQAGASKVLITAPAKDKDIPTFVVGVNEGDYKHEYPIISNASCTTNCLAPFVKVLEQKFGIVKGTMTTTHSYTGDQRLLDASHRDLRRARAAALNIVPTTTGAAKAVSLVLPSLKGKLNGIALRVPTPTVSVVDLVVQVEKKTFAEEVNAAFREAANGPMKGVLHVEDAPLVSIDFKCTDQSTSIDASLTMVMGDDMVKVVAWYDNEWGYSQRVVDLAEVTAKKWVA
B2: Calvin cycle protein CP12, chloroplastic (Chlamydomonas reinhardtii), A6Q0K5 (parent)
chain: B1 chain
partner: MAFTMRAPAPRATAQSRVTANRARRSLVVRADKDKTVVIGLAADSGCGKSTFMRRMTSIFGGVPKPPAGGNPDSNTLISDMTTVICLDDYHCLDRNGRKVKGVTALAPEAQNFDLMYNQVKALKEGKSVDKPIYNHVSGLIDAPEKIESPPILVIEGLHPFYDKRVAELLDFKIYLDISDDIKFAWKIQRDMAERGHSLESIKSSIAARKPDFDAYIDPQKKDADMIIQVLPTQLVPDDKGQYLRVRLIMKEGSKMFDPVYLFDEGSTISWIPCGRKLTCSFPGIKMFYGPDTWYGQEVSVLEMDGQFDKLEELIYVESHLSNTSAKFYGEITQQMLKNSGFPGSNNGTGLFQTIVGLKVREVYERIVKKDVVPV

The first test covers variants of B1. The settings on record: with g3pa_chlre GAPA.
In the case of MMLTKSVVISRPAVRPVSTRRAVVVRASGQPAVDLNKKVQDAVKEAEDACAKGTSADCAVAWDTVEELSAAVSHSKDAVKADVTLTDPLEAFCKDAPDADECRVYED [K75S], the “effect of a mutation on the interaction” value is “decreasing interaction”.

In another test the parent is B2. The note with it: with kppr_chlre PRKA.
For the variant MMLTKSVVISRPAVRPVSTRRAVVVRASGQSAVDLNKKVQDAVKEAEDACAKGTSADCAVAWDTVEELSAAVSHKKDAVKADVTLTDPLEAFCKDAPDADECRVYED [P31S], the “effect of a mutation on the interaction” value is given as “decreasing interaction”.
